This note sets out measurements from patent publication US20140363428A1 (Chugai, published 2014).

Positions count from the first letter of the chain named. Numbers in names are those of the source.

Assay [1] addresses T1, human IgA (human).
T1 construct: Recombinant antigen; variable region derived from an anti-human IL-6 receptor antibody; also called hIgA
Briefly: SPR Biacore T200, 37 C; pH 5.8, 1.2 mM Ca; steady state affinity.
Procedure: (§1) The antibodies isolated as described in 8-2 were assessed for their hIgA-binding activity (dissociation constant KD (M)) using Biacore T200 (GE Healthcare). Running buffers used in the measurement were 0.05% tween20/20 mmol/L ACES/150 mmol/L NaCl (pH 7.4 or 5.8) containing 3 microM or 1.2 mM CaCl₂.
(§2) The antibody was allowed to bind to Sensor chip CM5 (GE Healthcare) immobilized with a suitable amount of recombinant Protein A/G (Thermo Scientific) by the amino coupling method. Then, an appropriate concentration of hIgA (described in 8-1) was injected as an analyte to allow interaction with the antibody on the sensor chip. The measurement was carried out at 37 degrees C. After the measurement, 10 mmol/L glycine-HCl (pH 1.5) was injected to regenerate the sensor chip. The dissociation constant KD (M) was calculated from the measurement result by curve fitting analysis and equilibrium parameter analysis using Biacore T200 Evaluation Software (GE Healthcare).

In assay [2] the target is T1, human IgA. Briefly: SPR Biacore T200, 37 C; pH 5.8, 3 microM Ca; steady state affinity. (In general: In SPR one partner is held on a chip, and binding of the other changes the refractive index at the surface.)
Procedure: as §1, §2
For assay [3], the target named is T1, human IgA. Briefly: SPR Biacore T200, 37 C; pH 7.4, 3 microM Ca; steady state affinity.
Procedure: as §1, §2
Assay [4] has as its target T1, human IgA. Briefly: SPR Biacore T200, 37 C, Ab on Protein A/G, hIgA analyte; pH 7.4, 1.2 mM Ca; 1:1 binding model.
Procedure: as §1, §2
The target of assay [5] is T1, human IgA. Briefly: SPR Biacore T200, 37 C, Ab on Protein A/G, hIgA analyte; pH 7.4, 1.2 mM Ca; 1:1 binding model; pH 7.4, 1.2 mM Ca; 1:1 binding model.
Procedure: as §1, §2
In assay [6] the target is T2, human IgE (human).
T2 construct: Recombinant antigen; variable region derived from an anti-human glypican3 antibody; also called hIgE
Briefly: SPR Biacore T200, 37 C; pH 5.8, 1.2 mM Ca.
Procedure: (§3) Human IgE was immobilized onto the chip by injecting it at an appropriate concentration so as to be trapped by the biotinylated GPC3 peptide. […] Then, 10 mmol/L glycine-HCl (pH 1.5) was injected to regenerate the sensor chip. The interaction was always measured at 37 degrees C. The measurement result was analyzed by curve fitting using Biacore T200 Evaluation Software (GE Healthcare) to calculate the association rate constant ka (1/Ms) and dissociation rate constant kd (1/s). The dissociation constant KD (M) was calculated from the above-described constants.

In assay [7] the target is T2, human IgE. Briefly: SPR Biacore T200, 37 C; pH 5.8, 3 microM Ca.
Procedure: as §3
Assay [8] deals with T2, human IgE. Briefly: SPR Biacore T200, 37 C; ratio of KD, pH dependency.
Procedure: as §3
Assay [9] deals with T2, human IgE. Briefly: SPR Biacore T200, 37 C; ratio of KD, pH/Ca dependency.
Procedure: as §3
In assay [10] the target is T2, human IgE. Briefly: SPR Biacore T200, 37 C, hIgE captured via biotinylated GPC3 peptide, Ab analyte; pH 7.4, 1.2 mM Ca.
Procedure: as §3
Assay [11] deals with T3, biotinylated GPC3 peptide (chemically-synthetized peptide having a human glypican 3 protein-derived sequence, … (human, C-terminal Lys is biotinylated)).
T3 construct: Synthetic peptide immobilized on Sensor chip SA through biotin-streptavidin
T3 peptide: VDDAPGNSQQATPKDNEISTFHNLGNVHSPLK
Briefly: SPR (Biacore T200), capture of human IgE on Sensor chip SA carrying the biotinylated GPC3 peptide, 37 degrees C.

Assay [12] concerns the target T4, soluble human FcRn (heterodimer of FcRn alpha chain and beta2-microglobulin) (human, UniProt P55899 24-297; P61769 21-119).
T4 construct: Signal regions are part of the expressed constructs; also called hFcRn
Briefly: SPR (Biacore), hFcRn, measured in multiplicates; n=7.

Assay [13] deals with T5, soluble human FcRn (human, UniProt P55899 24-297; P61769 21-119).
T5 construct: Heterodimer of alpha chain and beta2-microglobulin; also called hFcRn
T5 sequence (P55899 24-297 limits assumed, chain 1 of 2): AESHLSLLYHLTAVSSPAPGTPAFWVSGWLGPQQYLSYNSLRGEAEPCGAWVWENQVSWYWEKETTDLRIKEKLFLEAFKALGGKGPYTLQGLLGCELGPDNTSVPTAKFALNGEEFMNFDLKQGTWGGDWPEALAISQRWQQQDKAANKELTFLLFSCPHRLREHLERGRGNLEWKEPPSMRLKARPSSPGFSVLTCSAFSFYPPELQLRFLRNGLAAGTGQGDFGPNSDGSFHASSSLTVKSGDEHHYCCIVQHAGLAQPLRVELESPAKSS
T5 sequence (P61769 21-119 limits assumed, chain 2 of 2): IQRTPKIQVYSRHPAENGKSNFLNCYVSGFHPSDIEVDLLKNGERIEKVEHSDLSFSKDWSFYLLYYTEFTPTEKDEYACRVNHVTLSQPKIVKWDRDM
Briefly: SPR (Biacore), pH 6.0; pH 6.0 (acidic pH, not neutral pH).

The target of assay [14] is T4, soluble human FcRn (heterodimer of FcRn …). Briefly: SPR, hFcRn at pH 7.0.
Assay [15] has the same target. Briefly: statement in Example 3.
Assay [16] deals with T5, soluble human FcRn. Briefly: SPR (Biacore), pH 6.0.
In assay [17] the target is T5, soluble human FcRn. Briefly: SPR (Biacore), pH 6.0; Table 26 series (4-5), a different experiment from Table 25; pH 6.0.

T4 sequence (P55899 24-297 limits assumed, chain 1 of 2): as the sequence (P55899 24-297 limits assumed, chain 1 of 2) above
T4 sequence (P61769 21-119 limits assumed, chain 2 of 2): as the sequence (P61769 21-119 limits assumed, chain 2 of 2) above
T1 sequence (VH, as listed by the source): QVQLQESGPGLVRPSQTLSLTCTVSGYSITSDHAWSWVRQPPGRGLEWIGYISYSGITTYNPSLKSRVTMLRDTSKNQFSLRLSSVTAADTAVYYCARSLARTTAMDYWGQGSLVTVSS

B1: GA2-IgG1 (antibody, V domains shown)
VH: QVQLVQSGAEVKKPGSSVKVSCKASGGTFSSYAISWVRQAPGQGLEWMGGIIPIFGTANYAQKFQGRVTITADESTSTAYMELSSLRSEDTAVYYCARPRWETAISSDAFDIWGQGTMVTVSS
VL: DIQMTQSPSSLSASVGDRVTITCRASQSISDDLNWYQQKPGKAPKLLIYEASNLQSGVPSRFSGSGSGTDFTLTISSLQPEDFATYYCQQHSSSPLTFGQGTKVEIKR
One may read the Kd as the constant that tells how readily two partners part at equilibrium. Higher therefore signals weaker binding. In general, kon refers to the rate constant with which the complex forms. As to B1, the dissociation constant (Kd) came out at 4000 nM with human IgA [1], 5000 nM in the assay with human IgA [2], 6700 nM with human IgA [3] and 39 nM in the assay with human IgA [4]. Moreover, the on-rate constant (kon) with human IgA [5] stood at 400000 M⁻¹ s⁻¹.

B2: clone 278 (antibody, human IgG1, kappa, V domains shown)
VH: QSLEESGGRLVTPGTPLTLTCTASGFSLSSYHMSWVRQAPGKGLEWIGVINSAGNTYYASWAKGRFTVSKTSTTVDLNLTSLTTEDTATYFCARYVFSSGSHDIWGPGTLVTVSS
VL: AYDMTQTPASVEVAVGGTVTIKCQASQSIGSWLAWYQQKPGQPPKELIYGTSTLESGVPSRFIGSGSGTEFTLTISGVECADAATYYCQQGYSEDNIDNAFGGGTEVVVKR
notes: human IgG1 heavy chain constant region and human light chain constant region
One may read the koff as a measure of how fast the partners let go of each other. Low readings indicate a long-lived complex, high ones a short-lived complex. In the assay with human IgE [6], B2 registered a dissociation constant (Kd) of 2000 nM, an off-rate (koff) of 0.23 s⁻¹ and an association rate constant (kon) of 120000 M⁻¹ s⁻¹. In the assay with human IgE [7], this molecule came in with a Kd of 3900 nM, a koff of 0.24 s⁻¹ and an on-rate constant (kon) of 62000 M⁻¹ s⁻¹. In the assay with human IgE [8], the “KD (pH 5.8, 1.2 mM Ca)/KD (pH 7.4, 1.2 mM Ca)” value amounted to 842. The “KD (pH 5.8, 3 microM Ca)/KD (pH 7.4, 1.2 mM Ca)” value with human IgE [9] was 1640. In the assay with human IgE [10], this molecule displayed a Kd of 2.4 nM, a koff of 0.0036 s⁻¹ and an on-rate (kon) of 1.5e+06 M⁻¹ s⁻¹.

B3: human IgE (recombinant; variable region derived from an anti-human glypican3 antibody) (other)
heavy: QVQLVQSGAEVKKPGASVKVSCKASGYTFTDYEMHWVRQAPGQGLEWMGALDPKTGDTAYSQKFKGRVTLTADKSTSTAYMELSSLTSEDTAVYYCTRFYSYTYWGQGTLVTVSSASTQSPSVFPLTRCCKNIPSNATSVTLGCLATGYFPEPVMVTWDTGSLNGTTMTLPATTLTLSGHYATISLLTVSGAWAKQMFTCRVAHTPSSTDWVDNKTFSVCSRDFTPPTVKILQSSCDGGGHFPPTIQLLCLVSGYTPGTINITWLEDGQVMDVDLSTASTTQEGELASTQSELTLSQKHWLSDRTYTCQVTYQGHTFEDSTKKCADSNPRGVSAYLSRPSPFDLFIRKSPTITCLVVDLAPSKGTVNLTWSRASGKPVNHSTRKEEKQRNGTLTVTSTLPVGTRDWIEGETYQCRVTHPHLPRALMRSTTKTSGPRAAPEVYAFATPEWPGSRDKRTLACLIQNFMPEDISVQWLHNEVQLPDARHSTTQPRKTKGSGFFVFSRLEVTRAEWEQKDEFICRAVHEAASPSQTVQRAVSVNPGK
light: DVVMTQSPLSLPVTPGEPASISCRSSQSLVHSNRNTYLHWYLQKPGQSPQLLIYKVSNRFSGVPDRFSGSGSGTDFTLKISRVEAEDVGVYYCSQNTHVPPTFGQGTKLEIKRTVAAPSVFIFPPSDEQLKSGTASVVCLLNNFYPREAKVQWKVDNALQSGNSQESVTEQDSKDSTYSLSSTLTLSKADYEKHKVYACEVTHQGLSSPVTKSFNRGEC
notes: Used as antigen; also called hIgE
B3: the binding result in assay [11] is on record as “binds”.

B4: Fv-4-F652 (antibody, human IgG1, kappa)
heavy: QVQLQESGPGLVKPSETLSLTCAVSGHSISHDHAWSWVRQPPGEGLEWIGFISYSGITNYNPSLQGRVTISRDNSKNTLYLQMNSLRAEDTAVYYCARSLARTTAMDYWGEGTLVTVSSASTKGPSVFPLAPSSKSTSGGTAALGCLVKDYFPEPVTVSWNSGALTSGVHTFPAVLQSSGLYSLSSVVTVPSSSLGTQTYICNVNHKPSNTKVDKKVEPKSCDKTHTCPPCPAPELLGGDSVFLFPPKPKDTLYISRTPEVTCVVVDVSHEDPEVKFNWYVDGVEVHNAKTKPREEQYNSTYRVVSVLTVLHQDWLNGKEYKCKVSNKALPAPIEKTISKAKGQPREPQVYTLPPSRDELTKNQVSLTCLVKGFYPSDIAVEWESNGQPENNYKTTPPVLDSDGSFFLYSKLTVDKSRWQQGNVFSCSVMHEALHYHYTQKSLSLSP
light: DIQMTQSPSSLSASVGDSVTITCQASTDISSHLNWYQQKPGKAPELLIYYGSHLLSGVPSRFSGSGSGTDFTFTISSLEAEDAATYYCGQGNRLPYTFGQGTKVEIERTVAAPSVFIFPPSDEQLKSGTASVVCLLNNFYPREAKVQWKVDNALQSGNSQESVTEQDSKDSTYSLSSTLTLSKADYEKHKVYACEVTHQGLSSPVTKSFNRGEC
notes: VH3-F652 (P238D/M252Y/N434Y) and VL3-CK
In the case of B4, in assay [12], the affinity, expressed as Kd, was 240 nM.

B5: Fv-4-YTE (antibody, human IgG1, kappa)
heavy: B4 heavy with D240P, S256T, T258E, Y436N
light: B4 light
Take B5: in the assay with soluble human FcRn [13], the dissociation constant (Kd) was 210 nM.

B6: Fv-4-F1080 (antibody, human IgG1, kappa, name in EU numbering)
heavy: B4 heavy with D240P, S426N
light: B4 light
modifications: additional N-glycosylation found by SDS-PAGE (S424N)
With B6, the binding result in assay [14] was “binds”.

B7: Fv-4-F946 (antibody, human IgG1, kappa)
heavy: B4 heavy with D240P, T252V, T309Q, Q313A, Y438V
light: B4 light
notes: VH3-F946 and VL3-CK
As for B7, the binding result in [15] is listed as “binds”.

B8: Fv-4-LS (antibody, human IgG1, kappa)
heavy: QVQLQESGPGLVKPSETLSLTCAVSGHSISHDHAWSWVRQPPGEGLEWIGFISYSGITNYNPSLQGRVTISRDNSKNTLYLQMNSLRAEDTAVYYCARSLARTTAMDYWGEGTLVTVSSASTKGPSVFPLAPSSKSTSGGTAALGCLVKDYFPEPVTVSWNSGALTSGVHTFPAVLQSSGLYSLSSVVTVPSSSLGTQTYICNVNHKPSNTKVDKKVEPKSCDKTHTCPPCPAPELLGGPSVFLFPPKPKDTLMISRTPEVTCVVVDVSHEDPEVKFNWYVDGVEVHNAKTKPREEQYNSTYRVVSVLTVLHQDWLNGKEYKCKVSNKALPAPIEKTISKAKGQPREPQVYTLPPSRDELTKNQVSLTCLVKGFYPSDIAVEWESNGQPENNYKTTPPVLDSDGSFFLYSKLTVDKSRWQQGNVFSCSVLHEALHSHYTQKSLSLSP
light: B4 light
notes: also called F22
On to B8, for which the Kd in the assay with soluble human FcRn [16] is 160 nM; with soluble human FcRn [17] it was 71 nM.
